Measured values: the nanobody polyreactivity screen of Harvey et al. (2022)

Assay: yeast display, Sf9 membrane polyspecificity reagent, FACS + sequencing; frameworks hold sequencing errors
Summary of the method: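 Synthetic nanobody libraries on Saccharomyces cerevisiae BJ5465 were galactose-induced for 36–48 hours, stained 1 hour at 4 °C with 10% biotinylated, detergent-solubilized Sf9 membrane reagent and enriched on streptavidin microbeads. FACS then separated cells into low and high (top ~1%) gates by anti-HA (expression) and streptavidin (reagent binding) fluorescence. Genes were colony-PCR amplified, MiSeq 2 × 250 sequenced and CDR-length filtered. A clone's polyreactivity label is that of its gate of origin.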

| Sequence | polyreactivity (PSR sort gate) |
| --- | --- |
| QVQHVESVGRLVQAGGSLRLSCAASGFTFKYYAMGWYRQAPGKERELVAVISSSGGSTYYADSVKGRFTISRDNAKNTVYLQMNSLKPEDTAVYYCAAELVYRYFVKDADDYWGQGTQVTVSS | low polyreactivity |
| QVQLVESGGGLVQAGGSLRLSCAASGSIFTPYAMGWYRQAPGKERELVAGIRSSGGRTYYADSVKGRFTISRDNAKNTVYLQMNSLKPEDTAVYYCAARVGGIYRNDYWGQGTQVTVSS | low polyreactivity |
| QVQLVESGGGLVQAGGSLRLSCAASGSILLINAMGWYRQAPGKERELVAAIRTGGSTYYADSVKGRFTISRDNAKNTVYLQMNSLKPEDTAVYYCAVRTGRRWWKFDYWGQGTQVTVSS | low polyreactivity |
| QVQLVESGGGLVQAGGSLRLSCAASGRISRGYAMGWYRQAPGKERELVAAIDSDGDTNYADSVKGRFTISRDNAKNTVYLQMNRLKAEDTAVYYCNKDGAYKTAYKRWTLYDYWGQGTQVTVSS | low polyreactivity |
| QVQLVESGGGLVQAGGSLRLSCAASGIIFRGYAMGWYRQAPGKERELVAAITYSGDSTYYADSVKGRFTSSRDNAKNTVYLQMNSLKPEESAVYYCNADVVDGGLAYDYWGQGTQVSVSS | low polyreactivity |
| QVQLVESGGGLVQAGGSLRLSCAASGRIFVVNAMGWYRQAPGTERELVAAITRRGGSTYADSVKGRFTISRDNAKNTVYLQMNSLKPEDTAVYYCNAESYYGIFRYKYDYWGQGTQVTVSS | high polyreactivity |
| QVQLVESGGGLVQAGGSLRLSFAASGRIFGWYAIGGYRKAAGTEREVVAAISTSGVRTYYADSVKGRFTISRDNAKITVYLQMKSLKPEDTAVYYCAARYIRAYSRDYWGQGTQVTVSS | high polyreactivity |
| QVQLVESGGGLVQAGGILRLSCASSRFTFTWYAMGWYRPAPGKERELVAAISLSGDRTYYADSVKGRFTISRDNAKNTVYLQMNSLKPEDTAVYYCVFAFEYYYWGQGTQVTVSS | low polyreactivity |
| QVQLGESGGGLVQAGGSLRLSCAASGYIFAYYAMGWSRQAPGKERELVAAISRSGGSTYYADSVKGRFTISRDNAKNTVYLEMISLKPEDTAVSYCAARSTGNYEREYNYWGQGTQVTVSS | high polyreactivity |
| QVQLVESGGGLVQAGGSLRLSCAASGITFVYYAMGWYRQAPGKERELVAAISKNGGSTYYADSVKGRFTISRDNAKNTVYLQMNSLKPEDTAVYYCAAEEGYRWVRYNYWGQGTQVTVSS | high polyreactivity |
| QVQLVESGGGLVQAGGSLRLSCAASGITVKLYPMGWYRQAPGKETELVATINRGSSTYYADSVKGRFTISRDNAKNTVYLLMNSLKPEDTAVYYCAARLIGAGLLIYDYWGQGTQVTVSS | high polyreactivity |
| QVQLVESGGGLVQAGGSLRLSCAASGFIFRRYAMGWYRPAPGKVWELVAAITLRGGSTYYADSVKGRFTISRDNAKNTVYLQMNSLKPEATAVYYCAAGVRGQHDGYYWGQGTQETVSS | high polyreactivity |
| QVQLVESGGGLVQAGGSLRLSCAASGSIFTKYAMGWYIQAPGKEREFVAAITLSGGSTYYADSVKGRFTISRDNAKNTVYLQMNSLKPEDTAVYYCNAAYTYVTAWYYYWGQGTQVTVSS | high polyreactivity |
| QVQLVESGGGLVQAGGSLRLSCPASGSIYGLYSMGWYRQAPGKERELVAVITYSVGTTYYADSVKGRFTISRDNAKNTVYLQMNSLKPEDTAVYYCAADLYWYYPWSAYYGEYDYWGQGTQVTVSS | low polyreactivity |
| QVQLVESGGGLVQAGGSLRLSCAASGRTFGYYAMGWYIQAPGKERELVAAISGSGGSTYYADSVKGRFTISRDNAKNTVYLQMNSLKPEDTEVYYCAARYIYYYAFGYNYWGQGTQVTVSS | high polyreactivity |
| QVQLVESGGGLVQAGGSLRLSCAASGSTFVYNTMGWYTQAPGKERELVAGIDWSGGRTFYADSVKGRFTISRDNAKNTVYLQMNSLKPEDTAVYYCAKRLRVYRPWTYNYWGQGTQVTVSS | high polyreactivity |
| QVQLVESGGGLVQAGGSLRLSCAASARTFYYNGMGWYIQAPGKERELVAASSGGGSSTSYADSVKGRFTISRDNAKNTVYLQMNSLKPEDTAVYYCAAKYGALRYYKMYYWGQGTQVTVSS | low polyreactivity |
| QVQLVESGGGLVQAGGSLRLSCAASGRTFRLYAMGWYRQAPGKERELVAAISRRGGSTYYADSVKGRFTISRDNAKNTVYLQMNSLKPEDTAVYYCAKGLGSGQEIYGYDYWGQGTQVTVSS | high polyreactivity |
| QVQLVESGGGLVQAGGSLRLSCAASGIIFYPNAMGWYRQAPGKERELVAAITSDGSTYYADSVKGRFTISRDNAMNTVYLQMNSLKPDDTAVYYCAAWDDYGYDYWGQGTQVTVSS | low polyreactivity |
| QVQLVESGGGLVQAGGSLRLICAASGRTSYTYVMGWYRQAPGKERELVAAIRLSGGNTYYADSVKGRFTISRDNAKNTVYLQMNSLKPEDTAVYYCAAQYWRHRKAYGYWGQGSQVTVSS | high polyreactivity |
| QVQLVESGRGLVQAGGSLRLSCAASGRTFYGYARGCYRQAPGKERELVARISSGGGTYYADSVKGRFIISRDNAKYTVYLQMNSLKPEDTAVYYCNAEVYRWSGSYTGWDSWHDDWGQGTQVTVSS | low polyreactivity |
| QVQLQESGGRLVQAGGSLRLSCAATGTIFTERFMGWYRQAPGKERELVAVISPGTSTNYADSVKGRFTISRDNAKNTVYLQMNSLKPEDTAVYYCAADWSTGNTLPYWGQGTQVTVSS | high polyreactivity |

| Sequence | polyreactivity (PSR sort gate) |
| --- | --- |
| QVQLVESGGGLVQAGGSLRLSCAASGRTFYVYVMGWYRQAPGKEREFVAAINYGSTYYADSVKGRFTISRDNAKNTVYLQMNSLIPEDTAVYYLGQGTQVTVSS | low polyreactivity |
| QVQLVESGGGLVQAGGSLRLSCAASGRTFYDYAMGWYRQAPGKERELVAGIRWSGGSTYYADSVKGRFTISRDNAKNTVYLQMISLKPEDTAVYYCAADWFAGVAADVEYDYWGQGTQVTVSS | low polyreactivity |
| QVQLVESGGGVVQAGGSLRLSFAASGSTFPGNAMGWYRQAPGKERELVASISGGGDSTYYADSVKGRFTISRDNAKNTVYLQMNSLKPEDTADYYCAARSTRGHYTAYDYWGQGTQVTVSS | low polyreactivity |
| QVQLVESGGGLVQAGGSLRLSCAASGRIFRYNAMGWYRQAPGKEREFVAAITSSGAGTHYADSVKGRFTISRDNAKNTVYLQMNSLKPEDTAVYYCNARGYYSKNSYDYYTGDYWGQGTQVTVSS | high polyreactivity |
| QVQLVESGGGLVQAGGSLRLSCAASGRTFSVNDMGWYRQAPWKEREFVAAISFSGGSTYYADSVKGRFTISRDNAKNTVYLLMNSLKPEDSAVYYSAAEAYPSWFYVITGFGIYDYWGQGTQVTGSS | high polyreactivity |
| QVQLVESGGGIVQAGGSLRLSFDASGFLFYSYAMGCYRQAPGKEREFVAAISWSGARTYYPDSVKGRFTISRDNAKNTVYLQMNSLKPEDTAVYYCIAVAFYPRSSRSWRLDYWGQGTQVTVSS | high polyreactivity |
| QVQLVESGRGLVQAGGSLRISCAASGRIFKNYAMGWYRQAPGKERELVADITWSDSDTSYADSVKGRFTITRDNAKNTVYLQMNCLKPEDTAVYYCAAETFDYADYIANGSAEYDYWGQGSQVTVSS | high polyreactivity |
| QVQLVESGGGLVQAGGSLRLSCAASGSTFYRYAMGWYRQAPGKERELVATISKRGGSTYYADSVKGRFTISRDNAKYTVYLQMNSLKPEDTAVYYCNVRLEYRYYRGDYWGQGTQVTVSS | high polyreactivity |
| QVQLVESGGGLVQAGGSLRLSCAASGFTFKYYVMGWSRQAPGKERELVASLSKRGGSTRYADSVKGRFTISRDNAKTTFYLQMHSLKPEDTAVYYCAAAFVRPPPYVGYSRFDYWGQGTQVTLSS | high polyreactivity |
| QVQLVESGGGLVQAGGSLRLSCAASGSTFQRYAMGWYRQAPGKERELVAAISSRGGSTYYADSVKGRFTISRDNAKNTVYLQMNSLKPEDTAVYYCAALGHLRYDYWGQGTQVTVSS | high polyreactivity |
| QVQLVESGGGLVQAGGSLRLSCAASGITFSRYAMGWYRQAPGKERELVAAITWDGGRTYYADSVKGRFTISRDNAKNTVYLQMNSLKPEDTAVYYCAAGSAWWYYWGQGTQVTVSS | high polyreactivity |
| QVQLVESGGGLVQAGGSLRLSCAASGRTFWRNAMGWYRQAPWKERELVAAISRSGDSTRYADSVKGRFTISRDNAKYSVYLQRTSLKPEATAVYYCNKLGTGVYEMDYWGQGTKVTVSS | high polyreactivity |
| QVQLVESGGGLVQAGCSLRLSCAASGRIFWVNAMGWYRQAPGKERELVAVISSGGSTHYADSVKGRFTISRDNAKYTVSLQMNSLKPEDTAGYYCAADRYYVGYYYWGQGTQVTVSS | low polyreactivity |
| QVQLVESVGGLVQAGGSLRLSCAASGFIFSGNTMGWYRQAPGKERELVAAITSGGGRTYYADSVKGRFTISRDNAKNTVYLQMNSLKPEDTAVYYCNTAFVYEYDYWGQGTQVTVSS | high polyreactivity |
| QVQLVESGGGLVQAGGSLRLSCAASGSTFVTYARGWYRQAPGKERELVAAISRRAGRTYYADSVKGRFTISRDNAQNTVSLQMNSLKPEDTAVYYCAKQAYEAFYTGDDYDYWGQGTKVTVSS | high polyreactivity |
| QVQLVESGGGLVQAGGSLRLSCDASGSTLSENVMGWYRQAPGKERELVATISYSGDSTYYADSVKGRFTISRDNAKNTVYLQMNSLKPEDTAVYYCAAGVGWDFAYWGQGTQVTVSS | low polyreactivity |
| QVQLVESGGGLVQAGGSLRLSCAASGFTFITNAMGWYRQAPGNERELVASISIGGSTNYADSVKGRFTISRDNAKNTVYLQMNSLKPEDTAVYYCAARVYRRLFLPGRFGRPLGYWGQGTQVTVSS | high polyreactivity |
| QVQLVESGGGLVQAGGSLRLSCAASGSTFRGYAMGWYRHAPGKERELVAAITYISDSTYYADSVKGRFTISRDNAKNTVYLQMNSLKPEDTAVYYCIAYYDGDWRYTSQETGDHWGQGTQVTVSS | low polyreactivity |
| QVQLVESGGGLDQAGGSLRLSCAASVNIFIYNTMGWYRQAPGKERELVAAITSDDSTKYADSVKGRFTISRDNAKNPVYLQMNTLKPEDTAVYYCAKRYYHPYWIDYDYWGQGTHVTVSS | low polyreactivity |
| QVQLVESGGGLVQAGGSLRLSCAASGRTFRYYAMGWYRQAPGKVRELVAAINWSGGSTYYADSVKGRFTISRDNAKNTVYLQMNSLKPEDTAVYYCAAVGHPSPPRTDLYYWGQGTQVTVSS | low polyreactivity |
| QVQLVESGGGLVQAGGSLRLSCAASGRIFTRNAMGWYRQAPGKEREFVAAISWSGGSTYYADSVKGRFTISRDNAKNTVDLQMNSLKPEDTAVYYCSAKNSGGYVSWYDYWGQGTQVTVSS | low polyreactivity |
